Data from PMC10397247.

What was measured:
4H3438-AA = target: T1, 4H3438-AA; experiment: two-hybrid library CCmax;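 also: natural log of median RNA to DNA barcode read ratio; higher means stronger binding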
T1 chain: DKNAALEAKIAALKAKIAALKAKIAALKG

4H347-AA = target: T2, 4H347-AA; experiment: two-hybrid library CCmax; details: mean of both orientations;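 also: natural log of median RNA to DNA barcode read ratio; higher means stronger binding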
T2 chain: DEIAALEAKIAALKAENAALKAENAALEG

4H406-AA = target: T3, 4H406-AA; experiment: two-hybrid library CCmax; details: mean of both orientations;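 also: natural log of median RNA to DNA barcode read ratio; higher means stronger binding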
T3 chain: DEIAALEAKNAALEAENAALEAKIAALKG

4H452-AA = target: T4, 4H452-AA; experiment: two-hybrid library CCmax; details: mean of both orientations;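 also: natural log of median RNA to DNA barcode read ratio; higher means stronger binding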
T4 chain: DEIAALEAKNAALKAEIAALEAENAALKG

4H56-AA = target: T5, 4H56-AA; experiment: two-hybrid library CCmax; details: mean of both orientations;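 also: natural log of median RNA to DNA barcode read ratio; higher means stronger binding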
T5 chain: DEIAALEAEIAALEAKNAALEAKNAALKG

4H_APH = target: T6, 4H_APH; experiment: two-hybrid library CCmax; details: mean of both orientations;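 also: natural log of median RNA to DNA barcode read ratio; higher means stronger binding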
T6 chain: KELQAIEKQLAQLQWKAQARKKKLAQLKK

4H_BCR = target: T7, 4H_BCR; experiment: two-hybrid library CCmax; details: mean of both orientations
T7 chain: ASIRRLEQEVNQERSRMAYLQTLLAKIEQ

4H_GCN4 = experiment: two-hybrid library CCmax; details: mean of both orientations
Sequence of 4H_GCN4 (chain, as listed by the source): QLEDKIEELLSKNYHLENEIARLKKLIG

GCN2_T = experiment: two-hybrid library CCmax; details: mean of both orientations
4H816-AA = target: T8, 4H816-AA; experiment: two-hybrid library CCmax
T8 chain: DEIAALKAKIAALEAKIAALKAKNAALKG

4H87-AA = target: T9, 4H87-AA; experiment: two-hybrid library CCmax; details: mean of both orientations
T9 chain: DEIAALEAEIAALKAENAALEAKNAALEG

4H797-bA = target: T10, 4H797-bA; experiment: two-hybrid library CCNG1
T10 chain: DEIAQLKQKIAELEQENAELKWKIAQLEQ

4H855-bA = target: T11, 4H855-bA; experiment: two-hybrid library CCNG1
T11 chain: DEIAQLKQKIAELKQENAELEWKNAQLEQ

4H883-bA = target: T12, 4H883-bA; experiment: two-hybrid library CCNG1
T12 chain: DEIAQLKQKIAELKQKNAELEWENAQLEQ

4H908-bA = target: T13, 4H908-bA; experiment: two-hybrid library CCNG1
T13 chain: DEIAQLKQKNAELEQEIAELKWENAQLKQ

4H918-bA = target: T14, 4H918-bA; experiment: two-hybrid library CCNG1
T14 chain: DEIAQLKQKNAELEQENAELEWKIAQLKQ

4H953-bA = target: T15, 4H953-bA; experiment: two-hybrid library CCNG1
T15 chain: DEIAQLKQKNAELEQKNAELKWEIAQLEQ

4H967-bA = target: T16, 4H967-bA; experiment: two-hybrid library CCNG1
T16 chain: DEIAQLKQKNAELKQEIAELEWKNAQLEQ

4H968-bA = target: T17, 4H968-bA; experiment: two-hybrid library CCNG1
T17 chain: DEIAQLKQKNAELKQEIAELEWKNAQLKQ

B1: 4H3438-AA (peptide)
chain: DKNAALEAKIAALKAKIAALKAKIAALKG
Work on B1 yielded an interaction score (4H3438-AA) of 0.922, an interaction score (4H347-AA) of -0.916 and an interaction score (4H406-AA) of -1.51. It also gave an interaction score (4H452-AA) of -0.716, an interaction score (4H56-AA) of 0.462 and an interaction score (4H_APH) of -1.5. The interaction score (4H_BCR) was -1.47, the interaction score (4H_GCN4) was -1.68 and the interaction score (GCN2_T) was -1.

B2: 4H816-AA (peptide)
chain: DEIAALKAKIAALEAKIAALKAKNAALKG
B2 gave an interaction score (4H816-AA) of 1.02 and an interaction score (4H87-AA) of 0.567.

B3: 4H797-bA (peptide)
chain: DEIAQLKQKIAELEQENAELKWKIAQLEQ
B3 showed an interaction score (4H797-bA) of 0.406, an interaction score (4H855-bA) of 0.572 and an interaction score (4H883-bA) of -0.129. The interaction score (4H908-bA) was -0.499, the interaction score (4H918-bA) was 0.787 and the interaction score (4H953-bA) was -0.848. The interaction score (4H967-bA) was -0.372 and the interaction score (4H968-bA) was -1.67.
